Test results published in patent US20240034796A1 (GENUV, published 2024).
Residue numbers refer to the chain shown, from its start. Each block holds one binder with its values, some of them ahead of it.

Assays:
human PD-1 protein [1] = molecular target: T1, human PD-1 protein (human, UniProt Q15116 25-167, limits assumed); test: SPR, Biacore 8K, antibody captured on Protein A chip, human PD-1 as analyte, pH 7.4
T1 construct: also called human PD-1 antigen

human PD-1 protein [2] = molecular target: T1, human PD-1 protein; test: SPR (Biacore 8K), ratio between the values at pH 7.4 and pH 6.0, human PD-1 as analyte
Procedure: (§1) The binding kinetics of each antibody to human PD-1 were measured through SPR (Surface Plasma Resonance) analysis using Biacore 8K (Cytiva), and the antibodies' binding affinities to the antigen were compared to one another.
(§2) Seven concentrations ([…]) of human PD-1 were flowed onto the sensor chip at a flow rate of 30 μL/min for an association phase of 120 s, followed by dissociation for 1800 s. Capture, association, and dissociation were performed in HBS-EP+buffer at pH 6.0. The chip was regenerated with glycine at pH 1.5 after each experiment. Association and dissociation curves were drawn using Cytiva evaluation software, and kinetics and affinity values were determined.

human PD-1 protein [3] = molecular target: T1, human PD-1 protein; test: SPR, Biacore 8K, antibody captured on Protein A chip, human PD-1 as analyte, HBS-EP+ at pH 6.0
Procedure: as §1, §2

[4] = molecular target: T2, extracellular domain (ECD) PD-1 protein from human (human, UniProt Q15116 25-170); test: protein-based ELISA, coated PD-1 ECD, antibody at 1 ug/ml
T2 construct: the whole entry is named; also called human PD-1 antigen
T2 sequence (Q15116 25-170 limits assumed): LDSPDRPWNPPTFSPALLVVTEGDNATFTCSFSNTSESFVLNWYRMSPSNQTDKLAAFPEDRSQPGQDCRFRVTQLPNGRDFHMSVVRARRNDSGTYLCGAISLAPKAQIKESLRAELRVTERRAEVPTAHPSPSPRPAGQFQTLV
Procedure: (§3) To determine the cross-reactivity of the antibody to PD-1 antigens, protein-based ELISA was performed. To summarize the ELISA analysis, a 96-well plate (Thermo scientific) was coated with 10 ng of the extracellular domain (ECD) PD-1 proteins from human, mouse, rabbit, cynomolgus, and rat overnight at 4° C. […] After washing, a secondary antibody (anti-human IgG antibody) was added and incubated at 37° C. for 2 hours. After washing, TMB substrate (abcam) was added, and the color reaction was stopped with STOP solution (abcam). Absorbance at 450/650 nm was measured using a microplate reader (ThermoFisher).

[5] = molecular target: T3, extracellular domain (ECD) PD-1 protein from mouse (mouse, UniProt Q02242 25-169); test: as above
T3 construct: extracellular domain; also called mouse PD-1 antigen
T3 sequence (looked up): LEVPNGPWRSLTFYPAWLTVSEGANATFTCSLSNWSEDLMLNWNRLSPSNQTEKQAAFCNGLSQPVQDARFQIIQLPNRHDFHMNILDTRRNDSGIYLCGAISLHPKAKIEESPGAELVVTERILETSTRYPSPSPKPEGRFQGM
Procedure: as §3

human PD-1 protein [6] = molecular target: T1, human PD-1 protein; test: SPR, binding kinetics to human PD-1
human PD-1 protein [7] = molecular target: T1, human PD-1 protein; test: SPR; ratio against the U299-WT parent
human PD-1 protein [8] = molecular target: T1, human PD-1 protein; test: SPR, binding kinetics to human PD-1; parent run 1
human PD-1 protein [9] = molecular target: T1, human PD-1 protein; test: SPR, binding kinetics to human PD-1; parent run 2

T1 sequence (Q15116 25-167 limits assumed): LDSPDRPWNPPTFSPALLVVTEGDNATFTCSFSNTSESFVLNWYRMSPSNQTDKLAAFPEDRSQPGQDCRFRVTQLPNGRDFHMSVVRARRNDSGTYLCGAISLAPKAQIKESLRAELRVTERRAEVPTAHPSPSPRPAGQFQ

B1: 2E5 antibody (antibody, V domains shown)
VH: QVQLVQSGAEVKKPGSSVKVSCKASGFTFTTYYISWVRQAPGQGLEYLGYINMGSGGTNYNEKFKGRVTITADKSTSTAYMELSSLRSEDTAVYYCAIIGYFDYWGQGTMVTVSS
VL: DVVMTQSPLSLPVTLGQPASISCRSSQSLLDSDGGTYLYWFQQRPGQSPRRLIYLVSTLGSGVPDRFSGSGSGTDFTLKISRVEAEDVGVYYCMQLTHWPYTFGQGTKLEIK
Kd (human PD-1 protein [1]): 12.6 nM | Ratio(PH 7.4 vs PH6) KD (human PD-1 protein [2]): 2.8 | Ratio(PH 7.4 vs PH6) ka (human PD-1 protein [2]): 3.4 | Ratio(PH 7.4 vs PH6) kd (human PD-1 protein [2]): 0.8 | Kd (human PD-1 protein [3]): 4.5 nM

B2: humanized antibody 1G1-h68 (antibody, human IgG4, kappa, V domains shown)
VH: QVQLVQSGAEVKKPGASVKVSCKASGYTFTGYWMHWVRQAPGQGLEWIGMIHPNSDTTTYNEKFKNRVTMTRDTSISTAYMELSRLRSDDTAVYYCTGTDQAAWFAFWGQGTTVTVSS
VL: DIVMTQTPLSLSVTPGQPASISCRSSQNIVHSNGDTYLEWYLQKPGQSPQLLIYKVSKRFSGVPDRFSGSGSGTDFTLKISRVEAEDVGVYYCFQGSHVPWTFGGGTKVEIKR
notes: hIgG4 heavy chain, human kappa light chain
binding result [4]: binds | binding result [5]: binds

B3: AHF16556 (antibody, V domains shown)
VH: B2 VH with T59V, E62W, T97A, A102E, F105A
VL: DIVMTQTPLSLSVTPGQPASISCRSSQNIVRSQGDTYLEWYLQKPGQSPQLLIYKVSKRFSGVPDRFSGSGSGTDFTLKISRVEAEDVGVYYCFQGSHVPWTFGGGTKVEIK
Kd (human PD-1 protein [6]): 0.427 nM | koff (human PD-1 protein [6]): 6.31e-05 s⁻¹ | kon (human PD-1 protein [6]): 148000 M⁻¹ s⁻¹ | Ratio (kD) (human PD-1 protein [7]): 5.27 | Ratio (kd) (human PD-1 protein [7]): 6.45

B4: humanized antibody 1G1-h70 (antibody, V domains shown)
VH: B2 VH with T97A
VL: B2 VL with N33Q
notes: hIgG4 heavy chain, human kappa light chain; also called 1G1-h70 parent antibody (WT); U299-WTI
binding result [5]: binds | Kd (human PD-1 protein [1]): 5.4 nM | Ratio(PH 7.4 vs PH6) KD (human PD-1 protein [2]): 5.8 | Ratio(PH 7.4 vs PH6) ka (human PD-1 protein [2]): 2.3 | Ratio(PH 7.4 vs PH6) kd (human PD-1 protein [2]): 2.7 | Kd (human PD-1 protein [8]): 2.32 nM | koff (human PD-1 protein [8]): 0.000402 s⁻¹ | kon (human PD-1 protein [8]): 174000 M⁻¹ s⁻¹ | Kd (human PD-1 protein [9]): 2.17 nM | koff (human PD-1 protein [9]): 0.000412 s⁻¹ | kon (human PD-1 protein [9]): 190000 M⁻¹ s⁻¹ | Kd (human PD-1 protein [3]): 0.9 nM

B5: AHF16566 (antibody, V domains shown)
VH: B2 VH with T59V, E62W, T97A, F105A
VL: B3 VL with R31H
Kd (human PD-1 protein [6]): 0.349 nM | koff (human PD-1 protein [6]): 7.53e-05 s⁻¹ | kon (human PD-1 protein [6]): 215000 M⁻¹ s⁻¹ | Ratio (kD) (human PD-1 protein [7]): 6.45 | Ratio (kd) (human PD-1 protein [7]): 5.41

B7: AHF16557 (antibody, V domains shown)
VH: B2 VH with T59V, E62W, T97A, F105A, A106G
VL: B3 VL with R31H
Kd (human PD-1 protein [6]): 0.425 nM | koff (human PD-1 protein [6]): 8.68e-05 s⁻¹ | kon (human PD-1 protein [6]): 204000 M⁻¹ s⁻¹ | Ratio (kD) (human PD-1 protein [7]): 5.29 | Ratio (kd) (human PD-1 protein [7]): 4.69

B9: AHF16565 (antibody, V domains shown)
VH: B2 VH with T59V, E62W, T97A, A102E, F105H, A106G
VL: B3 VL
Kd (human PD-1 protein [6]): 0.913 nM | koff (human PD-1 protein [6]): 0.000118 s⁻¹ | kon (human PD-1 protein [6]): 130000 M⁻¹ s⁻¹ | Ratio (kD) (human PD-1 protein [7]): 2.46 | Ratio (kd) (human PD-1 protein [7]): 3.45

B11: AHF16559 (antibody, V domains shown)
VH: B2 VH with T59V, T97A, F105H
VL: B3 VL with R31H
Kd (human PD-1 protein [6]): 0.371 nM | koff (human PD-1 protein [6]): 7.62e-05 s⁻¹ | kon (human PD-1 protein [6]): 206000 M⁻¹ s⁻¹ | Ratio (kD) (human PD-1 protein [7]): 6.06 | Ratio (kd) (human PD-1 protein [7]): 5.34

B14: humanized antibody 1G1-h61 (antibody, human IgG4, kappa, V domains shown)
VH: B2 VH with I48M, T97A
VL: B2 VL with Q50K
notes: as for B2
binding result [4]: binds | binding result [5]: binds

The remaining binders from weak to strong by Kd (human PD-1 protein [6]), led by results:

Kd (human PD-1 protein [6]): 0.339 nM | koff (human PD-1 protein [6]): 6.74e-05 s⁻¹ | kon (human PD-1 protein [6]): 199000 M⁻¹ s⁻¹ | Ratio (kD) (human PD-1 protein [7]): 6.64 | Ratio (kd) (human PD-1 protein [7]): 6.04
B17: AHF16569 (antibody, V domains shown)
VH: B2 VH with T59I, E62W, T97A, A102E, F105A
VL: B3 VL

Kd (human PD-1 protein [6]): 0.331 nM | koff (human PD-1 protein [6]): 6.74e-05 s⁻¹ | kon (human PD-1 protein [6]): 204000 M⁻¹ s⁻¹ | Ratio (kD) (human PD-1 protein [7]): 6.8 | Ratio (kd) (human PD-1 protein [7]): 6.04
B13: AHF16560 (antibody, V domains shown)
VH: B2 VH with T59I, T97A, A102E, F105H, A106G
VL: B3 VL

Kd (human PD-1 protein [6]): 0.31 nM | koff (human PD-1 protein [6]): 7.69e-05 s⁻¹ | kon (human PD-1 protein [6]): 248000 M⁻¹ s⁻¹ | Ratio (kD) (human PD-1 protein [7]): 7.26 | Ratio (kd) (human PD-1 protein [7]): 5.29
B8: AHF16558 (antibody, V domains shown)
VH: B2 VH with T97A, A102E, F105H
VL: B3 VL

Kd (human PD-1 protein [6]): 0.302 nM | koff (human PD-1 protein [6]): 5.53e-05 s⁻¹ | kon (human PD-1 protein [6]): 183000 M⁻¹ s⁻¹ | Ratio (kD) (human PD-1 protein [7]): 7.45 | Ratio (kd) (human PD-1 protein [7]): 7.36
B12: AHF16561 (antibody, V domains shown)
VH: B2 VH with T59I, T97A, F105A, A106G
VL: B3 VL

Kd (human PD-1 protein [6]): 0.241 nM | koff (human PD-1 protein [6]): 3.52e-05 s⁻¹ | kon (human PD-1 protein [6]): 146000 M⁻¹ s⁻¹ | Ratio (kD) (human PD-1 protein [7]): 9.34 | Ratio (kd) (human PD-1 protein [7]): 11.6
B10: AHF16568 (antibody, V domains shown)
VH: B2 VH with T59I, E62W, T97A, A102E, F105M, A106G
VL: B3 VL

Kd (human PD-1 protein [6]): 0.2 nM | koff (human PD-1 protein [6]): 3.29e-05 s⁻¹ | kon (human PD-1 protein [6]): 164000 M⁻¹ s⁻¹ | Ratio (kD) (human PD-1 protein [7]): 11.2 | Ratio (kd) (human PD-1 protein [7]): 12.4
B15: AHF16570 (antibody, V domains shown)
VH: B2 VH with T59I, E62W, T97A, F105A, A106G
VL: B3 VL

Kd (human PD-1 protein [6]): 0.165 nM | koff (human PD-1 protein [6]): 3.6e-05 s⁻¹ | kon (human PD-1 protein [6]): 218000 M⁻¹ s⁻¹ | Ratio (kD) (human PD-1 protein [7]): 13.6 | Ratio (kd) (human PD-1 protein [7]): 11.3
B6: AHF16563 (antibody, V domains shown)
VH: B2 VH with T59V, E62W, T97A, A102E, F105M, A106G
VL: B3 VL with R31H

Kd (human PD-1 protein [6]): 0.16 nM | koff (human PD-1 protein [6]): 3.68e-05 s⁻¹ | kon (human PD-1 protein [6]): 230000 M⁻¹ s⁻¹ | Ratio (kD) (human PD-1 protein [7]): 14.1 | Ratio (kd) (human PD-1 protein [7]): 11.1
B16: AHF16564 (antibody, V domains shown)
VH: B2 VH with T97A, A102E, F105A, A106G
VL: B3 VL
